For one substance, adherent platelets per mm² (adherent platelets per mm²) and cell attachment (cpm) results are on record in patent publication EP0530937A1.

Assay [1] concerns the target collagen receptor on human platelets (human). The assay is described as follows: adhesion of platelets to a plate coated with collagen type I with 50 µl Superose-pool (0.5 mg protein/ml), 2 mM Mg2+.
For assay [2] the target is unchanged. Briefly: adhesion of platelets to a plate coated with collagen type I with 10 µl Superose-pool (0.5 mg protein/ml), 2 mM Mg2+.
Assay [3] addresses collagen receptor on MTLn3 cells (rat mammary tumor cells) (rat). The assay is described as follows: adhesion of 51Cr-labelled MTLn3 cells to wells coated with collagen type III with 5 µl Superose-pool (0.5 mg protein/ml).
Assay [4] has the same target. Briefly: adhesion of 51Cr-labelled MTLn3 cells to wells coated with collagen type III with 10 µl Superose-pool (0.5 mg protein/ml).
Assay [5] has the same target. Briefly: adhesion of 51Cr-labelled MTLn3 cells to wells coated with collagen type III with 2 µl Superose-pool (0.5 mg protein/ml).

On to “collagen-induced platelet aggregation inhibitor from saliva of Triatoma pallidipennis (as saliva or as partially purified "Superose"-pool)”, for which the adherent platelets per mm² (adherent platelets per mm²) in assay [1] is 6500; in assay [2], 12000. Further, the cell attachment (cpm) in assay [3] is 1610 cpm; in assay [4], 1080 cpm; in assay [5] it was 2070 cpm.
